Measured values reported in patent US20210087281A1 (AGOMAB THERAPEUTICS, published 2021).

Assays:
[1] = target: T1, native human MET on living cells (human, UniProt P08581 25-1390); assay: flow cytometry, A549 cells
T1 construct: whole, on cells; also called Human cells (A549); HPAF-II
Method in brief: (§1)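 Chimeric anti-MET antibodies were incubated with living cells expressing native MET, human on A549 and mouse on MLP29. Binding was detected by flow cytometry with phycoerythrin-conjugated anti-human IgG1. Commercial anti-MET antibodies with matching PE secondaries served as positive controls.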

[2] = target: T2, native mouse MET on living cells (mouse, UniProt P16056 25-1379); assay: cell-based or functional assay
[3] = target: T1, native human MET on living cells; assay: cell-based or functional assay
[4] = target: T2, native mouse MET on living cells; assay: flow cytometry, MLP29 cells
Method in brief: as §1

[5] = target: T3, human MET ECD (human, UniProt P08581 25-932); assay: ELISA, MET ECD in solid phase, mAb 0-50 nM
T3 construct: range 1-932; recombinant ECD made by the applicants; the stated range begins at residue 1, so it includes the signal peptide of the entry; also called hMET; hMET ECD
T3 sequence (P08581 25-932 limits assumed, form in doubt): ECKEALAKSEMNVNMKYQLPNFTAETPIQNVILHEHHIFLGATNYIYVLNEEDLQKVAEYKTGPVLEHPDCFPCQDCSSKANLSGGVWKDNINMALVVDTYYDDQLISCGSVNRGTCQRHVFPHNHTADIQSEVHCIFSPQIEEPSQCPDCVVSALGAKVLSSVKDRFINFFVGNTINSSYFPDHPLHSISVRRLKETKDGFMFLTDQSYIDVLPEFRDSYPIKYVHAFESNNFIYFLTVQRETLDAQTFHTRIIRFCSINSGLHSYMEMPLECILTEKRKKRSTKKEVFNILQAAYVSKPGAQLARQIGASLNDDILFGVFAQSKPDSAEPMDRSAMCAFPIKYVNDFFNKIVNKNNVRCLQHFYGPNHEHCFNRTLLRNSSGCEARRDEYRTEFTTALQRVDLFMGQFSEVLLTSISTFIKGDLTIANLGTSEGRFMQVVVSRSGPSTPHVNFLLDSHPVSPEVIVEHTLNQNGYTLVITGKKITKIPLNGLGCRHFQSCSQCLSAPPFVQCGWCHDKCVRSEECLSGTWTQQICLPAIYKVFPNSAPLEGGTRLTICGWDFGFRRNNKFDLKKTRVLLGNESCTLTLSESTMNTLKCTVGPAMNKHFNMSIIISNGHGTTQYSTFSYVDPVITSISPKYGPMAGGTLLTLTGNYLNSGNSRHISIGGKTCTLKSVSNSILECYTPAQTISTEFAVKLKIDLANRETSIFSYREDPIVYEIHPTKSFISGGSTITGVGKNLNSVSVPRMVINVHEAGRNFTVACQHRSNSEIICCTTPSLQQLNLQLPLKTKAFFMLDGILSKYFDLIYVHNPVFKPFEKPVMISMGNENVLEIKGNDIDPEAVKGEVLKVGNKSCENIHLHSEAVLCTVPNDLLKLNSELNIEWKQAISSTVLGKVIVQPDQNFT
Protocol: Using human MET as a template, we mutagenized each of these residues in different permutations, generating a series of MET mutants that are fully human except for specific residues, which are llama. Next, we tested the affinity of selected SEMA-binding mAbs (71D6, 71C3, 71D4, 71A3, 71G2) and PSI-binding mAbs (76H10 and 71G3) for these MET mutants by ELISA. To this end, the various MET proteins were immobilized in solid phase (100 ng/well in a 96-well plate) and then exposed to increasing concentrations of antibodies (0-50 nM) solution. […] Wild-type human MET was used as positive control.
TABLE 18 The epitopes of MET responsible for agonistic antibody binding represent residues conserved among H. sapiens, M. musculus, R. norvegicus, M. fascicularis but not among the same species and L. glama. The relevance of residues conserved among human, mouse, rat, cynomolgus monkey but not llama MET for binding to agonistic mAbs was tested by ELISA. Wild-type (WT) or mutant (MT) human MET ECD was immobilized in solid phase and exposed to increasing concentrations of mAbs in solution. […] All binding values were normalized to the WT protein and are expressed as % binding (EMAX) compared to WT MET.

[6] = target: T2, native mouse MET on living cells; assay: cell-based or functional assay; remark: listed apart in the source
[7] = target: T1, native human MET on living cells; assay: cell-based or functional assay; remark: listed apart in the source
[8] = target: T4, human MET-Fc (R&D Systems) (human, UniProt P08581 25-932); assay: competition ELISA, hMET-Fc in solid phase, competitor 0.3 nM biotinylated hHGF
T4 construct: extracellular domain; bought chimeric protein; also called hMET; not shown: Fc portion of human IgG1
T4 sequence (P08581 25-932): as the sequence (P08581 25-932 limits assumed, form in doubt) above
Method in brief: (§2)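 Immobilized human or mouse MET-Fc was exposed to 0.3 nM N-terminally biotinylated HGF of matching species with antibodies at 0–120 nM. Competition given as IC₅₀ (antibody concentration for 50% competition) and IMAX (maximum % competition at saturation).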

[9] = target: T5, mouse MET-Fc (R&D Systems) (mouse, UniProt P16056 25-929, limits assumed); assay: competition ELISA, mMET-Fc in solid phase, competitor 0.3 nM biotinylated mHGF
T5 construct: bought chimeric protein; also called mMET; not shown: Fc part
Method in brief: as §2

[10] = target: human MET ECD mutant E (mutations 2, 3, 4) (human) (UniProt P08581); assay: ELISA, MET ECD in solid phase, mAb 0-50 nM
[11] = target: human MET ECD mutant A (mutations 1, 2, 3) (human) (UniProt P08581); assay: ELISA, MET ECD in solid phase, mAb 0-50 nM
[12] = target: human MET ECD mutant D (mutations 1, 2) (human) (UniProt P08581); assay: ELISA, MET ECD in solid phase, mAb 0-50 nM
[13] = target: human MET ECD mutant H (mutations 2, 4) (human) (UniProt P08581); assay: ELISA, MET ECD in solid phase, mAb 0-50 nM
[14] = target: T6, mouse MET ECD (mouse, UniProt P16056 25-931); assay: ELISA, MET ECD in solid phase, mAb 0-20 nM
T6 construct: range 1-931; recombinant ECD made by the applicants; the stated range begins at residue 1; also called mMET; mMET ECD
Method in brief: (§3)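 Chimeric llama-human IgG1 mAbs, transiently expressed in mammalian cells and protein A-purified, were titrated in solution at 0-20 nM against immobilized hMET or mMET ECD. Binding read by ELISA.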

[15] = target: T3, human MET ECD; assay: ELISA, MET ECD in solid phase, mAb 0-20 nM
Method in brief: as §3

[16] = target: T2, native mouse MET on living cells; assay: cell-based or functional assay; remark: listed apart in the source
[17] = target: T1, native human MET on living cells; assay: cell-based or functional assay; remark: listed apart in the source
[18] = target: T2, native mouse MET on living cells; assay: cell-based or functional assay; remark: listed apart in the source
[19] = target: T1, native human MET on living cells; assay: cell-based or functional assay; remark: listed apart in the source

T1 sequence (P08581 25-1390): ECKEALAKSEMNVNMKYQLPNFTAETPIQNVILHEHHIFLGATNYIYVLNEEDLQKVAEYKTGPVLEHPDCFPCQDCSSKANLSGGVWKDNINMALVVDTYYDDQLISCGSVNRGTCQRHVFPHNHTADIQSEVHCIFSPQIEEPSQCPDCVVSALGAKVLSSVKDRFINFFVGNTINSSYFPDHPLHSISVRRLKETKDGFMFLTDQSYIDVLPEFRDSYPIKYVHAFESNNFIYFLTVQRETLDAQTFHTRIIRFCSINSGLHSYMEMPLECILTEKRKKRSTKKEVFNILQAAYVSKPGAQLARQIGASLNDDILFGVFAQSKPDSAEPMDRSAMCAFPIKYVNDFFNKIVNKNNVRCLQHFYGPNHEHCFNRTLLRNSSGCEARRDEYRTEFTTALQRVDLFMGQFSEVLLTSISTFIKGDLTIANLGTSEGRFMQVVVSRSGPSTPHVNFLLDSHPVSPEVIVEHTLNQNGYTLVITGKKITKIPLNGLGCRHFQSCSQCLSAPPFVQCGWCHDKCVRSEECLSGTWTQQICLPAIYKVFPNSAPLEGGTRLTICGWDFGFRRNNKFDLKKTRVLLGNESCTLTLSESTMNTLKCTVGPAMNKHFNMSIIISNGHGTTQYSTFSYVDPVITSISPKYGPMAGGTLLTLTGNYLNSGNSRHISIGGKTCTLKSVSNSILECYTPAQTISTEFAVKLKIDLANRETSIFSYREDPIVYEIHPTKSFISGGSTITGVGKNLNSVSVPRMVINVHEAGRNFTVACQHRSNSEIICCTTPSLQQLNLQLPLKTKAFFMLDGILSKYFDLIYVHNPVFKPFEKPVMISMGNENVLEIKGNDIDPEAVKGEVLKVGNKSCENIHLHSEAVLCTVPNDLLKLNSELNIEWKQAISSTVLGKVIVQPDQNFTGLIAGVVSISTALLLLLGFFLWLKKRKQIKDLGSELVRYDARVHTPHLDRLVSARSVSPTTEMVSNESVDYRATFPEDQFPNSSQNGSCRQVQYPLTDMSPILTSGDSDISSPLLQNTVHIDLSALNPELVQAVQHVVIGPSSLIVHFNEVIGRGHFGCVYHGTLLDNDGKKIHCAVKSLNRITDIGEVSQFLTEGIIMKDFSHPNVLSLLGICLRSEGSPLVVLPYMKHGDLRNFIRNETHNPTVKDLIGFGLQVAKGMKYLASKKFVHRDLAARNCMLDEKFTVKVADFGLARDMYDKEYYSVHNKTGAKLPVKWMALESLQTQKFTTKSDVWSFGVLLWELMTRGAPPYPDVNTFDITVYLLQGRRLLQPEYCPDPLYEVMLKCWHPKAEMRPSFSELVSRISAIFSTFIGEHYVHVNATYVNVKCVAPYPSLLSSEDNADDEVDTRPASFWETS

B1: 71D4 chimeric llama-human IgG1 mAb (antibody, V domains shown)
VH: ELQLVESGGGLVQPGGSLRLSCAASGFTFSGYGMSWVRQAPGKGLEWVSDINSGGGSTSYADSVKGRFTISRDNAKNTLYLQMNSLKPEDTAVYYCAKDMRLYLARYNDYEAWDYWGQGTQVTVSS
VL: SSALTQPSALSVTLGQTAKITCQGGSLGSSYAHWYQQKPGQAPVLVIYDDDSRPSGIPERFSGSSSGGTATLTISGAQAEDEGDYYCQSADSSGNAAVFGGGTHLTVL
notes: llama VH on human IgG1 CH1-CH2-CH3, llama VL on human lambda CL
- EC50 [1]: 0.371 nM
- EMAX [1]: 107 % relative to control
- branches per spheroid, MLP29 cells, 0.5 nM [2]: 16 branches
- branches per spheroid, MLP29 cells, 2.5 nM [2]: 14.7 branches
- branches per spheroid, MLP29 cells, 12.5 nM [2]: 21.7 branches
- branches per spheroid, LOC cells, 0.5 nM [3]: 9 branches
- branches per spheroid, LOC cells, 2.5 nM [3]: 15.7 branches
- branches per spheroid, LOC cells, 12.5 nM [3]: 18.7 branches
- EC50 [4]: 0.498 nM
- EMAX [4]: 94.8 % relative to control
- % binding (EMAX) compared to WT MET [5]: 100 % WT MET ECD
- protection from staurosporine, viability EC50, MLP29 cells [6]: 29.8 nM
- protection from staurosporine, viability EMAX, MLP29 cells [6]: 52.1%
- protection from staurosporine, viability EC50, MCF10A cells [7]: 30.2 nM
- protection from staurosporine, viability EMAX, MCF10A cells [7]: 51.7%
- IC50 [8]: 0.34 nM
- IMAX [8]: 95.6%
- IC50 [9]: 0.4 nM
- IMAX [9]: 91.3%
- % binding (EMAX) compared to WT MET [10]: 57.2 % WT MET ECD
- % binding (EMAX) compared to WT MET [11]: 114 % WT MET ECD
- % binding (EMAX) compared to WT MET [12]: 120 % WT MET ECD
- % binding (EMAX) compared to WT MET [13]: 58.7 % WT MET ECD
- EC50 [14]: 0.274 nM
- EMAX (OD450) [14]: 1.17 AU
- EC50 [15]: 0.207 nM
- EMAX (OD450) [15]: 1.43 AU
- scatter score 0-4, MLP29, 0.001 nM [16]: 0 score
- scatter score 0-4, MLP29, 0.004 nM [16]: 0 score
- scatter score 0-4, MLP29, 0.012 nM [16]: 0 score
- scatter score 0-4, MLP29, 0.037 nM [16]: 0 score
- scatter score 0-4, MLP29, 0.111 nM [16]: 0 score
- scatter score 0-4, MLP29, 0.333 nM [16]: 0 score
- scatter score 0-4, MLP29, 1.000 nM [16]: 1 score
- scatter score 0-4, MLP29, 3.000 nM [16]: 2 score
- scatter score 0-4, MLP29, 9.000 nM [16]: 2 score
- scatter score 0-4, HPAF-II, 0.001 nM [17]: 0 score
- scatter score 0-4, HPAF-II, 0.004 nM [17]: 0 score
- scatter score 0-4, HPAF-II, 0.012 nM [17]: 0 score
- scatter score 0-4, HPAF-II, 0.037 nM [17]: 0 score
- scatter score 0-4, HPAF-II, 0.111 nM [17]: 0 score
- scatter score 0-4, HPAF-II, 0.333 nM [17]: 0 score
- scatter score 0-4, HPAF-II, 1.000 nM [17]: 1 score
- scatter score 0-4, HPAF-II, 3.000 nM [17]: 2 score
- scatter score 0-4, HPAF-II, 9.000 nM [17]: 2 score
- phospho-MET ELISA EC50, MLP29 cells [18]: 0.51 nM
- phospho-MET ELISA EMAX (% HGF activity), MLP29 cells [18]: 95.3%
- phospho-MET ELISA EC50, A549 cells [19]: 0.59 nM
- phospho-MET ELISA EMAX (% HGF activity), A549 cells [19]: 84.6%
